Assay results as given in the DeepSol protein solubility set.

test: soluble on expression in E. coli; label from the status in PepcDB or PDB records

Sequence | soluble on expression in E. coli
MSELKDIIAAVTPCKGADFELQALKIRQPQGDEVLVKVVATGMCHTDLIVRDQKYPVPLPAVLGHEGSGIIEAIGPNVTELQVGDHVVLSYGYCGKCTQCNTGNPAYCSEFFGRNFSGADSEGNHALCTHDQGVVNDHFFAQSSFATYALSRENNTVKVTKDVPIELLGPLGCGIQTGAGACINALKVTPASSFVTWGAGAVGLSALLAAKVCGASIIIAVDIVESRLELAKQLGATHVINSKTQDPVAAIKEITDGGVNFALESTGSPEILKQGVDALGILGKIAVVGAPQLGTTAQFDVNDLLLGGKTILGVVEGSGSPKKFIPELVRLYQQGKFPFDQLVKFYAFDEINQAAIDSRKGITLKPIIKIA | soluble
MSELNKEMTLLPPPELVQYVGGDFKKVGKEFLKHFIQIGALKSNEKVLDVGCGVGRMAVPLMNYLNDDGAYYGFDLFKDGITWCQNNISTMRNNFHFEHVDIYNQFYNPEGKEDASQYRFPYEDGTFDFIFLTSVFTHLLPKELEHYVSEIVRVLKKDGRCFITFFLINPESSYYLNAGQSTLGFYHRIENCYVVNKDIPNFAVAYPETDICNLLNKYGLEIINKPHYGLWCGRHEYTSYQDIVLTKKSFLEHHHHHH | soluble
MSENPLLERARRFLSALRHCQVLGLTVEAADEKGLTLRLPYSQAIIGNPESGVVHGGAITTLMDTTCGISTVCVLPDFEICPTLDLRIDYMHPAEPHKDVYGFAECYRVTPNVIFTRGFAYQDDPGQPIAHVVGAFMRMGLEHHHHHH | soluble
MSEPASVPRGAAPGSRGTASPRAVVIGAGLAGMLAAAALHRHAEVTVVDRDVLPAEPAPRKGLPQARHAHLLWSGGARAMEDLLPGVTAAWLAAGARRIPLPTGLVSLSAQGWLRRWPEMEFMISCTRDLLDSVIREQVAKKEGVTLLAGTELLGLEGGALRVTGVRVRTPEGEERVLEADLVVDASGRGSRSVAWLDALGVPQAPMDEVDSGLAYASRIFRAPAGTEDFPVVNVQPDPAQPVPAQSATIVPVEGGRWLVTLSGTHGGQPTASAEEFEAFARGVRDPVVGELIAHAEPLTNVVLTRSTINRRRFFEKVKDWPEGFVAIGDAVATYNPVYGHGMSVAAQGAVALREHVAEHGLAAPGLARRAQRAVALPVKIAWELATGTDIRYPEAIGKQPGGTQKLLGRYVERLMRTATGRPLVAQAFLGVITLSRPLSTLVKPEVLFAVLRGPRRSPLAGPPLTPEERKAVLTAKEPSGTQAAGLEHHHHHH | not soluble
MSEPEEQQPDIHTTAGKLADLRRRIEEATHAGSARAVEKQHAKGKLTARERIDLLLDEGSFVELDEFARHRSTNFGLDANRPYGDGVVTGYGTVDGRPVAVFSQDFTVFGGALGEVYGQKIVKVMDFALKTGCPVVGINDSGGARIQEGVASLGAYGEIFRRNTHASGVIPQISLVVGPCAGGAVYSPAITDFTVMVDQTSHMFITGPDVIKTVTGEDVGFEELGGARTHNSTSGVAHHMAGDEKDAVEYVKQLLSYLPSNNLSEPPAFPEEADLAVTDEDAELDTIVPDSANQPYDMHSVIEHVLDDAEFFETQPLFAPNILTGFGRVEGRPVGIVANQPMQFAGCLDITASEKAARFVRTCDAFNVPVLTFVDVPGFLPGVDQEHDGIIRRGAKLIFAYAEATVPLITVITRKAFGGAYLVMGSKHLGADLNLAWPTAQIAVMGAQGAVNILHRRTIADAGDDAEATRARLIQEYEDALLNPYTAAERGYVDAVIMPSDTRRHIVRGLRQLRTKRESLPPKKHGNIPL | soluble
MSEPLDLNQLAQKIKQWGLELGFQQVGITDTDLSESEPKLQAWLDKQYHGEMDWMARHGMLRARPHELLPGTLRVISVRMNYLPANAAFASTLKNPKLGYVSRYALGRDYHKLLRNRLKKLGEMIQQHCVSLNFRPFVDSAPILERPLAEKAGLGWTGKHSLILNREAGSFFFLGELLVDIPLPVDQPVEEGCGKCVACMTICPTGAIVEPYTVDARRCISYLTIELEGALPEELRPLMGNRIYGCDDCQLICPWNRYSQLTTEDDFSPRKPLHAPELIELFAWSEEKFLKVTEGSAIRRIGHLRWLRNIAVALGNAPWDETILTALESRKGEHPLLDEHIAWAIAQQIERRNACIVEVQLPKKQRLVRVIEKGLPRDA | not soluble
MSEQAPAPKRGRRFKEQTPVQRALGLLVHREHSKKELNRKLQARGIEPEAAQAAVERLAGEGWQDDVRFAASVVRNRASSGYGPLHIRAELGTHGLDSDAVSAAMATFEGDWTENALDLIRRRFGEDGPVDLAQRRKAADLLARRGFDGNSIRLATRFDLED | soluble
MSESSRIREKYPDRIPVIVEKAGQSDVPDIDKKKYLVPADLTVGQFVYVVRKRIKLGAEKAIFVFVKNTLPPTAALMSAIYEEHKDEDGFLYMTYSGENTFGSLTVA | soluble
MSESYTLIKELKRQLKSAGLHYVDVAQHLNLSEGSVKRLLAEGQHISLERLERICQLIGLEMAELFKLAAAHNKGLESLTLEQEKQLVDDKALLLVAICVVNGYQFEQIVQQYTFNELELVQKLAHLDRLNIIDLQPNNKIRLRISPTFKWQMGGPIQRFFQQQVQDAFFQSYFSGEDEQLSMATGLMSVPTNKKLQQKLQKVIDEFYQACQSDSSLDMDEKHGTSLIIAMRRWTFPLFEPWERKPTQKSQN | not soluble
MSETGTRISPLFSHRRWKLQVLDLQDVCENFWMVWSEAMARGCFLNAKRNKKPVQDCPRMRGRQPLTVFVELWLKNRTLDEHLTCLLLWVKQRKDLLHLCCKKLKILGMPFRNIRSILKMVNLDCIQEVEVNCKWVLPILTQFTPYLGHMRNLQKLVLSHMDVSRYVSPEQKKEIVTQFTTQFLKLHCLQKLYMNSVSFLEGHLDQLLSCLKTSLKVLTITNCVLLESDLKHLSQCPSISQLKTLDLSGIRLTNYSLVPLQILLEKVAATLEYLDLDDCGIIDSQVNAILPALSRCFELNTFSFCGNPISMATLENLLSHTIILKNLCLELYPAPRESYGADGTLCWSRFTQIRAELMKRVRDLRHPKRILFGTDYCPDCGNRSFYDLEADQYCC | not soluble
MSETTQGPTHFRLMSKLKAIGPYLREPQSQEGRYYFDCLSVCVDDKKSPEKREFWGWWMDLESIEGGFTAKYHIGKYNKEGKWVSEALPQKVVEEVYFTQSTFHQKLIDTLAEHFKLEVEYHTESFDFA | not soluble
MSEVESQQSQETNGSSKFDVPEIELIIKASTIDGRRKGACLFCQEYFMDLYLLAELKTISLKVTTVDMQKPPPDFRTNFEATHPPILIDNGLAILENEKIERHIMKNIPGGYNLFVQDKEVATLIENLYVKLKLMLVKKDEAKNNALLSHLRKINDHLSARNTRFLTGDTMCCFDCELMPRLQHIRVAGKYFVDFEIPTHLTALWRYMYHMYQLDAFTQSCPADQDIINHYKLQQSLKMKKHEELETPTFTTYIPIDISE | soluble
MSFALLMASGGLDSTTVAYWLTERGVQFIPVFFDYGQHCVETEWETLKEVLPASAAHPERNDISDLFRGSKSRLITEADLWNEEVKDEDLYVPYRTLLFYSAAAARAQTLGAFEVYTGFINSNRAKEIDCTAEFMNKLDALTDSVGPVRFLSPFRFWSKSEVAKESIRLGVPIGRTFSCQAASLMPCGACPNCVERLAALRETGLLA | not soluble
MSFDLSWYGVPVEEEAKEEEAIVYGIPNNPELEQIIPAKFHSFVNEVIGDYNTLSDEEFWKKYNLREIWFDVKEYEEDNKAKNMLGTIIVFLLVEKEYILQLDYKEDLVDYIEDIDNYWGKEEVKLISFEVDNDQQYYAYVPKTAAIDSLYEVKLTEVEKIEEV | not soluble
MSFGYLIATSQPCELLTKSRGETFSLIMDKMDLWIYFRFCEGNIYTIRKNETESCLTERGGEWLKHIYEFNRGSFIFSYVLLKKRESEENFTEIVLKSIKNNKILTVKVRSGLHFDLRNIYRIEM | not soluble
MSFMPAIVGPIAINSISGGVVNFGDSFYLSPKSSSKSALGSGAGNTGDFLLLNNAVNATNYIDPDVNDQDMVGNGLEHHHHHH | not soluble
MSFNDLYKASIYTMLGSIYAPSGGVIAAPTTSLPEVEGGKRNWDYRFAWVRDSSIIAEALLEAGSIVEARRIINFLLSLINFSSKPFYYPLYTIEGTIPPPERELRWLSGYKNSKPVRIGNGASSQIQLDIEGFFISALYKYVKMTNDQVFLKDVFSKVKYIGDWISENWSLKDSGIWEDRGSPQHYTHSKIMMWIALDKIGKLANLIGYADIWAKEREKLRNWIFTNCVKNNYFIRYCGNTDDVDSSLLSAPLYGFIEVSDSTFINTLTKIENDLKTDVFVKRYKTDFMGEAKHPFLLTTVWLARVYMRLGKIDSAIEILNKINKVSRELHLVGEHVDVEKGEFTGNFPQIFVHAQLVIAIKELNDTLTDKNIILEHHHHHH | not soluble
MSFQVSVAVNDGPFQKKSVTPNTTIGDLNNDAILIWKDTAIVYDISDESKNFGPTVTLEQLGVTQISMVYIYTTAFPCPSGDLRSIVPAQVRLISQFASAASSIFNGQSSSSAQSAQRTRRVEQDDEGEKSMFSRKLLDSPATFKALSENMFFRLKNEPHKLGYGLPELVERFLAKKDMTYKEFEQMFRSYVEEEVHKEEIIKNNPNSAEAKMFLEAKRNKELIDEQYLHSMTHHPEDMIAVTMLYINLTINGVPVKAFIDSGAQKSIMSMACAERCGLNGLIDRRFQSMARGVGGTEKIEGKIHLCDVKVEDAHFSCPFEVMARREMDLLIGLNVLRKHGCCINLKTSRLEFGNGTTTPFLQSNEIDSHLKEIMALPEEEMQFEDGST | not soluble
MSFYYSNIVSNQEKTFYDAQFSMSSLKQVSPISGSPQRDDSFNISPASSSPDMLVETWKSDEENAKSESPSSQSTTATSTNDDLFASVGTWEVHANENNITVNKKKKRSRKIRRLRDVQDSDEERPKPVIALVPLVPNPFCVSDSLLSKLGPVATKRRRVCFNPTISFHYYCVDK | not soluble
MSGAEQQQIVPANNGDENWKAGLNLPAKDRRFKTADVTDTKGVEFEDFCLGRDLLMGIFEKGWEKPSPIQEASIGVALTGQDILARAKNGTGKTGAYCIPVIEKIQPALKAIQAMVIVPTRELALQTSQICVELSKHIQLKVMVTTGGTDLRDDIMRLNGTVHLVIATPGRILDLMEKGVAKMEHCKTLVLDEADKLLSQDFQGILDRLINFLPKERQVMLYSATFPNTVTSFMQKHMHKPYEINLMEELTLLGVTQYYAFVQEKQKVHCLNTLFRKLQINQSIIFCNSTQRVELLAKKITEIGYSCYYIHSKMAQNHRNRVFHDFRQGNCRNLVCSDLLTRGIDIQAVNVVINFDFPRNAETYLHRIGRSGRFGHLGVAINLITYEDRHTLRRIEQELRTRIEPIPKTVDPKLYVADQQLVDAADETTA | not soluble
MSGAPPPPPPYNQAYNAYPQPPQGVYTVQPGVPIGQGVQPAYAVYYQQPQTVIVDDCHHHHHHREREHGGGGGEMCCLAGLMACLCFLCLSK | not soluble
MSGFRKDELIPVIIDIHGEKRKMFEDIADTVLRRVLDEEENECPPIESRGSSTSSFSTTPSSSASPLSINQLLSSSFSQPPAPQLPVPLAFNPFQLALYQSLVANNTLAFPVFGGPPSIFPLLVPPPQPQPTVESIELLKILQNMLAKQKK | not soluble
MSGISIIENAVLKPTKREVAEQWLGYFEHIGSYRFVDPDGQVGIESLIGFDLDRRLVQMPVTYRSAEFDAEHTLTTMDHSVLGTRYVSNAMGDPVAVREYIRVILEADNGAQRSDGKVSVLDVRGSGNREEKLTLGEVRILEATRQRAVGYVRIDGTLRGFVLRVPHLLVPENSPRLGHNISPMRLNGSVVMSPKTVLIAAELSWHDI | not soluble
MSGNRGGSYISGIVPSFKERRPFHERQKDVEEIRSQQPNKVPVIIERFDGERSLPLMDRCKFLVPEHITVAELMSIVRRRLQLHPQQAFFLLVNERSMVSNSMSMSNLYSQERDPDGFVYMVYTSQPAFG | not soluble
